In publication PMC12148038, “Enhancement of CEP215 dynamics for spindle pole assembly during mitosis” (Journal of Cell Science, 2025):

T1: MBP–CEP215^1814-1877 (human, UniProt Q96SN8 1814-1877)
T1 construct: CEP215 (CDK5RAP2), human, residues 1814-1877; source: E. coli Rosetta (DE3) (pET Duet-1 vector), purified (amylose column, SEC)
T1 sequence (looked up): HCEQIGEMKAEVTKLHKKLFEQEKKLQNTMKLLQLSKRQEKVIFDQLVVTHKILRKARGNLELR


Columns and labels:
[1] = target: MBP–CEP215^1661-1893 (human) (UniProt Q96SN8); assay: ITC; 25 µM MBP–CEP215 1661-1893 in the cell, titrated with 250 µM PCNT fragment, 29 injections, 25°C, MicroCal PEAQ-ITC
[2] = target: the molecule itself; assay: SEC-MALS; each purified protein at 1 to 5 mg/ml on Superdex 200 Increase 5/150 GL with MALS-UV-RI detectors
MBP–CEP215^1814-1877 = target: T1, MBP–CEP215^1814-1877; assay: SEC; mixture of the two purified proteins, size exclusion chromatography followed by SDS-PAGE of the fractions; conditions: both partners purified

Molecule | stoichiometry N [2] | further results
PCNT fragment used in the ITC experiment (from UniProt O95613 2350-2450) (domain or fragment) | – | Kd [1]: 164 nM
PCNT^2350-2450 (domain or fragment, human, UniProt O95613 2350-2450, looked up, PCNT (pericentrin), human, residues 2350-2450; Homodimer by SEC-MALS; calculated monomer mass 11.3 kDa, which fits a fragment without MBP; source: bacterially expressed, purified (amylose column, TEV cleavage, anion exchange, SEC)) RLSPGSGGPEAQTAGPVTPASISGRFQPLPEAMKEKEVRPKHVKALLQMVRDESHQILALSEGLAPPSGEPHPPRKEDEIQDISLHGGKTQEVPTACPDWR | 2 | –
RPKHVKALLQMVRDESHQILALSEGLAPPSGEP (domain or fragment, human, UniProt O95613 2388-2420, looked up, PCNT (pericentrin), human, residues 2388-2420; source: E. coli Rosetta (DE3) (pET Duet-1 vector), purified (amylose column, SEC)) [MBP–PCNT^2388-2420] | – | binding result (MBP–CEP215^1814-1877): binds
MBP–CEP215^1661-1893 (domain or fragment, human, UniProt Q96SN8 1661-1893, looked up, Homodimer by SEC-MALS; calculated monomer mass with MBP 71.8 kDa; also called CEP215 fragment; source: bacterially expressed (pPROEX vector), purified (amylose column, SEC)) MESDNSFDLFDSSQAVTPKSVSETPPLSGNDTDSLSCDSGSSATSTPCVSRLVTGHHLWASKNGRHVLGLIEDYEALLKQISQGQRLLAEMDIQTQEAPSSTSQELGTKGPHPAPLSKFVSSVSTAKLTLEEAYRRLKLLWRVSLPEDGQCPLHCEQIGEMKAEVTKLHKKLFEQEKKLQNTMKLLQLSKRQEKVIFDQLVVTHKILRKARGNLELRPGGAHPGTCSPSRPGS | 2 | –
